Source: the supplement of paper PMC9112550, “Optimization of the antimicrobial peptide Bac7 by deep mutational scanning” (BMC Biology, 2022)

tested on: Escherichia coli TOP10; experiment: shrunken log2 fold change of peptide-encoding DNA abundance (4.5 h post-induction vs induction); higher = less antimicrobial activity (less host growth inhibition); conditions: time post-induction: 4.5 h; library: site-saturation at positions 5, 18, 19, 20
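Further: peptides expressed intracellularly from a pBAD plasmid library in pooled LB shake-flask culture, induced with 0.3% L-arabinose, DNA abundance read by NGS, three biological replicates, DESeq2 with apeglm shrinkage.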

Sequence | shrunken log2 fold change
RRIRVRPPRLPRPRPRPDTIPRP | -0.00658
RRIRCRPPRLPRPRPRPSKMPRP | -0.492
RRIRMRPPRLPRPRPRPYTMPRP | -0.06
RRIRTRPPRLPRPRPRPSHAPRP | -0.345
RRIRSRPPRLPRPRPRPIEKPRP | -0.0173
RRIRMRPPRLPRPRPRPNEHPRP | 0.0235
RRIRRRPPRLPRPRPRPTVPPRP | 0.0694
RRIRNRPPRLPRPRPRPNAKPRP | -0.109
RRIRPRPPRLPRPRPRPQLSPRP | -0.485
RRIRKRPPRLPRPRPRPIYLPRP | -0.305
RRIRMRPPRLPRPRPRPTPCPRP | 0.746
RRIRQRPPRLPRPRPRPESQPRP | -0.0174
RRIRPRPPRLPRPRPRPSRQPRP | 0.357
RRIRSRPPRLPRPRPRPVFYPRP | -0.266
RRIRGRPPRLPRPRPRPPTVPRP | 1.12
RRIRNRPPRLPRPRPRPCGIPRP | -0.138
RRIRHRPPRLPRPRPRPCCNPRP | 0.0722
RRIRFRPPRLPRPRPRPKIWPRP | 0.106
RRIRTRPPRLPRPRPRPYYAPRP | -0.489
RRIRMRPPRLPRPRPRPVEHPRP | -0.00663
RRIRWRPPRLPRPRPRPWVYPRP | -0.384
RRIRFRPPRLPRPRPRPMYSPRP | -0.73
RRIRDRPPRLPRPRPRPYRIPRP | 0.0295
RRIRSRPPRLPRPRPRPITIPRP | -0.324
RRIRPRPPRLPRPRPRPSEVPRP | -0.079

Sequence | shrunken log2 fold change
RRIRNRPPRLPRPRPRPERQPRP | 0.221
RRIRWRPPRLPRPRPRPQVYPRP | -0.015
RRIRRRPPRLPRPRPRPLQKPRP | 0.44
RRIRFRPPRLPRPRPRPPHCPRP | 0.362
RRIRMRPPRLPRPRPRPSISPRP | 0.000307
RRIRPRPPRLPRPRPRPQFAPRP | 0.218
RRIRNRPPRLPRPRPRPDDAPRP | 0.147
RRIRGRPPRLPRPRPRPGVTPRP | 0.721
RRIRARPPRLPRPRPRPMDTPRP | 0.143
RRIRDRPPRLPRPRPRPCENPRP | 0.0231
RRIRFRPPRLPRPRPRPELWPRP | 0.677
RRIRERPPRLPRPRPRPCQCPRP | -0.0543
RRIRKRPPRLPRPRPRPACAPRP | 1
RRIRQRPPRLPRPRPRPSSMPRP | -0.201
RRIRDRPPRLPRPRPRPGWQPRP | 0.22
RRIRRRPPRLPRPRPRPATQPRP | 0.691
RRIRTRPPRLPRPRPRPTRAPRP | 0.687
RRIRFRPPRLPRPRPRPTWVPRP | 0.156
RRIRPRPPRLPRPRPRPWEIPRP | -0.00151
RRIRERPPRLPRPRPRPCCHPRP | -0.603
RRIRTRPPRLPRPRPRPIHHPRP | -0.124
RRIRKRPPRLPRPRPRPPGCPRP | 0.955
RRIRMRPPRLPRPRPRPCHGPRP | 0.241
RRIRGRPPRLPRPRPRPPMGPRP | 0.59
RRIRTRPPRLPRPRPRPGIAPRP | -0.0278

Sequence | shrunken log2 fold change
RRIRARPPRLPRPRPRPHVQPRP | 0.00547
RRIRDRPPRLPRPRPRPIDSPRP | -0.0258
RRIRERPPRLPRPRPRPMSDPRP | -0.235
RRIRPRPPRLPRPRPRPPQRPRP | 0.43
RRIRVRPPRLPRPRPRPTQHPRP | 0.155
RRIRERPPRLPRPRPRPLLAPRP | 0.173
RRIRLRPPRLPRPRPRPHSQPRP | -0.0709
RRIRGRPPRLPRPRPRPSGNPRP | 0.18
RRIRPRPPRLPRPRPRPVRWPRP | 0.819
RRIRVRPPRLPRPRPRPCGYPRP | 0.0222
RRIRERPPRLPRPRPRPPEYPRP | -0.0278
RRIRLRPPRLPRPRPRPVNSPRP | 0.1
RRIRVRPPRLPRPRPRPYRPPRP | -0.462
RRIRKRPPRLPRPRPRPKHVPRP | 0.473
RRIRFRPPRLPRPRPRPGDKPRP | 0.215
RRIRYRPPRLPRPRPRPKGMPRP | -0.111
RRIRQRPPRLPRPRPRPEHIPRP | -0.0129
RRIRTRPPRLPRPRPRPCGYPRP | -0.0816
RRIRTRPPRLPRPRPRPYDFPRP | -0.385
RRIRGRPPRLPRPRPRPVMTPRP | 1.8
RRIRLRPPRLPRPRPRPRNWPRP | 0.751
RRIRKRPPRLPRPRPRPNIAPRP | 0.262
RRIRTRPPRLPRPRPRPGVAPRP | 0.639
RRIRGRPPRLPRPRPRPHELPRP | 0.871
RRIRCRPPRLPRPRPRPLYAPRP | -0.3

Sequence | shrunken log2 fold change
RRIRFRPPRLPRPRPRPVCVPRP | -0.168
RRIRVRPPRLPRPRPRPKHMPRP | -0.518
RRIRVRPPRLPRPRPRPRSMPRP | -0.123
RRIRNRPPRLPRPRPRPQTLPRP | -0.513
RRIRYRPPRLPRPRPRPKAEPRP | 0.0881
RRIRPRPPRLPRPRPRPSGWPRP | 0.57
RRIRCRPPRLPRPRPRPLMDPRP | -0.256
RRIRVRPPRLPRPRPRPQWIPRP | -0.895
RRIRWRPPRLPRPRPRPCKCPRP | -0.0392
RRIRDRPPRLPRPRPRPSDLPRP | 0.0645
RRIRPRPPRLPRPRPRPGFDPRP | 0.131
RRIRTRPPRLPRPRPRPHHHPRP | -0.924
RRIRQRPPRLPRPRPRPFGIPRP | -0.138
RRIRDRPPRLPRPRPRPYFPPRP | -0.944
RRIRDRPPRLPRPRPRPPHTPRP | 0.198
RRIRRRPPRLPRPRPRPPHGPRP | 0.596
RRIRQRPPRLPRPRPRPCNPPRP | -0.0715
RRIRRRPPRLPRPRPRPKGWPRP | 0.439
RRIRQRPPRLPRPRPRPMFSPRP | 0.0442
RRIRHRPPRLPRPRPRPWFEPRP | -0.366
RRIRWRPPRLPRPRPRPLCAPRP | 0.776
RRIRLRPPRLPRPRPRPINFPRP | -0.426
RRIRNRPPRLPRPRPRPDLMPRP | 3.21
RRIRVRPPRLPRPRPRPSKFPRP | -0.579
RRIRNRPPRLPRPRPRPPHIPRP | -0.311

Sequence | shrunken log2 fold change
RRIRGRPPRLPRPRPRPCHSPRP | 0.0222
RRIRERPPRLPRPRPRPQYPPRP | -0.208
RRIRDRPPRLPRPRPRPSFHPRP | -0.429
RRIRRRPPRLPRPRPRPGQFPRP | 0.0178
RRIRNRPPRLPRPRPRPGMRPRP | 0.504
RRIRTRPPRLPRPRPRPQGKPRP | -0.108
RRIRHRPPRLPRPRPRPYNNPRP | -0.819
RRIRLRPPRLPRPRPRPSFQPRP | -0.514
RRIRDRPPRLPRPRPRPGMFPRP | 0.00675
RRIRIRPPRLPRPRPRPKMYPRP | -0.25
RRIRTRPPRLPRPRPRPHMSPRP | 0.0303
RRIRDRPPRLPRPRPRPCSNPRP | 0.0176
RRIRDRPPRLPRPRPRPPFWPRP | 0.185
RRIRMRPPRLPRPRPRPQQNPRP | 0.281
RRIRRRPPRLPRPRPRPLRRPRP | 0.654
RRIRARPPRLPRPRPRPITFPRP | 0.051
RRIRQRPPRLPRPRPRPPETPRP | 0.00852
RRIRQRPPRLPRPRPRPQLHPRP | -0.237
RRIRNRPPRLPRPRPRPPHDPRP | 0.114
RRIRIRPPRLPRPRPRPYRIPRP | -0.485
RRIRCRPPRLPRPRPRPHSEPRP | -0.319
RRIRWRPPRLPRPRPRPRRFPRP | 0.269
RRIRPRPPRLPRPRPRPYWSPRP | -0.324
RRIRARPPRLPRPRPRPNIYPRP | -0.418
RRIRKRPPRLPRPRPRPSMAPRP | 0.0554

Sequence | shrunken log2 fold change
RRIRKRPPRLPRPRPRPCFPPRP | 0.123
RRIRYRPPRLPRPRPRPAGKPRP | -0.237
RRIRTRPPRLPRPRPRPSDAPRP | -0.174
RRIRDRPPRLPRPRPRPNKFPRP | -0.293
RRIRDRPPRLPRPRPRPMVQPRP | -0.00146
RRIRPRPPRLPRPRPRPSCKPRP | -0.189
RRIRTRPPRLPRPRPRPFVKPRP | -0.838
RRIRSRPPRLPRPRPRPMTIPRP | -0.0727
RRIRWRPPRLPRPRPRPFVVPRP | -0.242
RRIRKRPPRLPRPRPRPIIKPRP | 0.232
RRIRPRPPRLPRPRPRPPLYPRP | 0.217
RRIRNRPPRLPRPRPRPLKPPRP | 0.203
RRIRTRPPRLPRPRPRPWTAPRP | -0.124
RRIRFRPPRLPRPRPRPLIRPRP | -0.382
RRIRQRPPRLPRPRPRPQRGPRP | 0.235
RRIRPRPPRLPRPRPRPTMKPRP | -0.179
RRIRKRPPRLPRPRPRPRTYPRP | 0.0895
RRIRKRPPRLPRPRPRPFTGPRP | 0.0735
RRIRARPPRLPRPRPRPGVEPRP | 0.118
RRIRPRPPRLPRPRPRPENDPRP | -0.0164
RRIRLRPPRLPRPRPRPLEHPRP | 0.0313
RRIRRRPPRLPRPRPRPPYAPRP | 0.774
RRIRVRPPRLPRPRPRPLYHPRP | -0.677
RRIRLRPPRLPRPRPRPMMCPRP | 0.00205
RRIRGRPPRLPRPRPRPIDHPRP | 0.115
